The record followed here is paper PMC5737387 (Nucleic Acids Research, 2017).

Assay [1] addresses p44ct(368–534) (Chaetomium thermophilum). As to the kind of experiment: ITC. (In general: Isothermal titration calorimetry measures the heat released or taken up as one component is titrated into another.)
Assay [2] deals with full length p44hs (Homo sapiens, UniProt Q13888 1-395). Briefly: co-IP.
Sequence of full length p44hs (Q13888 whole entry): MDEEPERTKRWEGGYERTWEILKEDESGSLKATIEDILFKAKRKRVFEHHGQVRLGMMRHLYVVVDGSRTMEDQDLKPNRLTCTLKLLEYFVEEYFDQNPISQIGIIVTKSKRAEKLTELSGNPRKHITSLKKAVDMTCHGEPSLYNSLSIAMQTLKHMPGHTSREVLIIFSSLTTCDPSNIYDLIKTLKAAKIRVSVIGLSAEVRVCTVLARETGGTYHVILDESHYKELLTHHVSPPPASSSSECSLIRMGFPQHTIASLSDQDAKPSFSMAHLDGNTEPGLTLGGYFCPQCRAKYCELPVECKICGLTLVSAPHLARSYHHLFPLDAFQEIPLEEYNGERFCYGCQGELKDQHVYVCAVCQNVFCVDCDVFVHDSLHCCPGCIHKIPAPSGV

A word on the Kd: it is the constant that tells how readily two partners part at equilibrium. In general, stoichiometry N refers to the number of molecules, sites or subunits per partner or assembly. In assay [1], p34ct(1–277) (domain or fragment) showed a Kd of 11 nM, a dH of -25 kcal/mol and a stoichiometry N of 0.71.

B1: full length p34hs (natural protein)
chain: MVSDEDELNLLVIVVDANPIWWGKQALKESQFTLSKCIDAVMVLGNSHLFMNRSNKLAVIASHIQESRFLYPGKNGRLGDFFGDPGNPPEFNPSGSKDGKYELLTSANEVIVEEIKDLMTKSDIKGQHTETLLAGSLAKALCYIHRMNKEVKDNQEMKSRILVIKAAEDSALQYMNFMNVIFAAQKQNILIDACVLDSDSGLLQQACDITGGLYLKVPQMPSLLQYLLWVFLPDQDQRSQLILPPPVHVDYRAACFCHRNLIEIGYVCSVCLSIFCNFSPICTTCETAFKISLPPVLKAKKKKLKVSA
Consider B1, for which, in assay [2], the binding result is “binds”.
